Results as given in WO2012019024A2 (dated 2012).

Experiments:
[1] = molecular target: T1, chL2-S2 chimeric human/murine HER-3 ECD Fc fusion (murine; human, UniProt Q61526 20-632); test: ELISA on chL2-S2 Fc
T1 construct: also called chL2-S2-Fc; chimeric ECD comprising murine L1-S1 domains and human L2-S2 domains; not shown: murine IgG2A hinge, CH2, and CH3 region (pmuFc2ANL vector)
T1 chain: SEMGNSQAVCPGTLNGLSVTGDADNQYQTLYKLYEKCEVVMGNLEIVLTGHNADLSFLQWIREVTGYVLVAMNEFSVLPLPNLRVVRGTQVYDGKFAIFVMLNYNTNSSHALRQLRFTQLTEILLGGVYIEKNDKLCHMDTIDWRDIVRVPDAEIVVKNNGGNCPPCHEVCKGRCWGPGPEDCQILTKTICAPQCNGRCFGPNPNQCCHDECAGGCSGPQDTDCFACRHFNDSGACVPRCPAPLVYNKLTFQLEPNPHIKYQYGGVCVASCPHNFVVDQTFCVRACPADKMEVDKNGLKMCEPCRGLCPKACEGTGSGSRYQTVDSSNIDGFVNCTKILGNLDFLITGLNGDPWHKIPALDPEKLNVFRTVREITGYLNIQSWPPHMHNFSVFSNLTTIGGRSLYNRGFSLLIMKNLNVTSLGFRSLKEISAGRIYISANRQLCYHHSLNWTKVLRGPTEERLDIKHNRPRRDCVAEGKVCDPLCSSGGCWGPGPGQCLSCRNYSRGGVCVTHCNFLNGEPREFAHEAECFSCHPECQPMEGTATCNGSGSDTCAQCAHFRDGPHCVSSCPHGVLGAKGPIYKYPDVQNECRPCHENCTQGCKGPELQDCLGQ

[2] = molecular target: T2, chL1-S1 chimeric human/murine HER-3 ECD Fc fusion (human; murine, UniProt P21860 20-632); test: ELISA on chL1-S1 Fc (Figure 30)
T2 construct: also called chLl-Sl; chimeric ECD comprising human L1-S1 domains and murine L2-S2 domains; not shown: murine IgG2A hinge, CH2, and CH3 region (pmuFc2ANL vector)
T2 chain: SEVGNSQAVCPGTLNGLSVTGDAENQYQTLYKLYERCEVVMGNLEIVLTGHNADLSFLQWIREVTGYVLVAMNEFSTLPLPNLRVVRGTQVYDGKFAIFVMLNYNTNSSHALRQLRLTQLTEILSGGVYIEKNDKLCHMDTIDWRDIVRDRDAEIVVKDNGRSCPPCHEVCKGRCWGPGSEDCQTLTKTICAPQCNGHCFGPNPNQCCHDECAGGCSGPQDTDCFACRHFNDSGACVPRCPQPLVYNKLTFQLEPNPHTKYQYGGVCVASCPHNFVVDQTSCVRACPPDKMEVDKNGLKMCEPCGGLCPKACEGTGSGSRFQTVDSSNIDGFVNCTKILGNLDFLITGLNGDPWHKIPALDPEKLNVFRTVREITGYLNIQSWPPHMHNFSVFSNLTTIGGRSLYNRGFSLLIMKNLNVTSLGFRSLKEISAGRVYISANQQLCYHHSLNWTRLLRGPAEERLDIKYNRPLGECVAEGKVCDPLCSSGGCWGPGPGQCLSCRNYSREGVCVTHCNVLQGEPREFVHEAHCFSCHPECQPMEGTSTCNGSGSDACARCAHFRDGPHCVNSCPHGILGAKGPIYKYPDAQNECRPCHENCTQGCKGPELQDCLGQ

binding result [1]: no binding
binding result [2]: binds
B1: huHER3-10 antibody (antibody, V domains shown)
VH: QVQLVQSGPEVVKPGVSMKISCKASGYTFTDYTMNWVKQSPGQNLEWIGLINPYNDITAYNQKFQGKATLSVDKSSSTAYMELLSLTSEDSAVYYCARRGPRGAWFAYWGQGTLVTVSA
VL: DIVLTQSPASLAVSPGQRATISCRASTSVYNYGNSFMHWYQQMPGQPPKLLIYLASNLESGVPARFSGSGSRTDFTLTIDPVEANDAATYYCQQNSEDPWTFGQGTKLEIKR
notes: Recombinant humanized antibody with human constant regions; also called huHer-10; humanized (resurfaced) HER3-10
